Measured values as given in patent US20240109961A1 (CELLDEX THERAPEUTICS, published 2024).

How the values were obtained:
[1] = molecular target: T1, human neonatal Fc Receptor (FcRn) (human, UniProt P55899 24-297; P61769 21-119); assay: bio-layer interferometry (Octet QKe), His-tagged FcRn captured on anti-Penta-His biosensors, pH 6.0, antibody range 31.25-1.9 nM, R2 0.9869
T1 construct: not shown: histidine tag

[2] = molecular target: T1, human neonatal Fc Receptor (FcRn); assay: bio-layer interferometry (Octet QKe), His-tagged FcRn captured on anti-Penta-His biosensors, pH 7.2, antibody range 500-15.6 nM, R2 0.9876
Method: (§1) Binding to recombinant human Fc receptors was measured by bio-layer interferometry using an Octet® QKe instrument. […] Curve fitting was performed using the instrument's analysis software. Binding to FcRn was performed with association and dissociation steps at pH 6.0 as well as pH 7.2.

[3] = molecular target: T1, human neonatal Fc Receptor (FcRn); assay: bio-layer interferometry (Octet QKe) at pH 6.0; His-tagged FcRn on anti-Penta-His biosensor, antibody in solution
Method: as §1

[4] = molecular target: T1, human neonatal Fc Receptor (FcRn); assay: bio-layer interferometry (Octet QKe), His-tagged FcRn captured on anti-Penta-His biosensors, pH 6.0, antibody range 31.25-1.9 nM, R2 0.9869; row head Kdis(1/s)
Method: as §1

[5] = molecular target: T1, human neonatal Fc Receptor (FcRn); assay: bio-layer interferometry (Octet QKe) at pH 7.2; His-tagged FcRn on anti-Penta-His biosensor, antibody in solution
Method: as §1

[6] = molecular target: human KIT (wild-type KIT) (human, UniProt P10721 26-976); assay: cell-based or functional assay
Sequence of human KIT (wild-type KIT) (P10721 other isoform, or with tags, fused parts or gaps limits assumed): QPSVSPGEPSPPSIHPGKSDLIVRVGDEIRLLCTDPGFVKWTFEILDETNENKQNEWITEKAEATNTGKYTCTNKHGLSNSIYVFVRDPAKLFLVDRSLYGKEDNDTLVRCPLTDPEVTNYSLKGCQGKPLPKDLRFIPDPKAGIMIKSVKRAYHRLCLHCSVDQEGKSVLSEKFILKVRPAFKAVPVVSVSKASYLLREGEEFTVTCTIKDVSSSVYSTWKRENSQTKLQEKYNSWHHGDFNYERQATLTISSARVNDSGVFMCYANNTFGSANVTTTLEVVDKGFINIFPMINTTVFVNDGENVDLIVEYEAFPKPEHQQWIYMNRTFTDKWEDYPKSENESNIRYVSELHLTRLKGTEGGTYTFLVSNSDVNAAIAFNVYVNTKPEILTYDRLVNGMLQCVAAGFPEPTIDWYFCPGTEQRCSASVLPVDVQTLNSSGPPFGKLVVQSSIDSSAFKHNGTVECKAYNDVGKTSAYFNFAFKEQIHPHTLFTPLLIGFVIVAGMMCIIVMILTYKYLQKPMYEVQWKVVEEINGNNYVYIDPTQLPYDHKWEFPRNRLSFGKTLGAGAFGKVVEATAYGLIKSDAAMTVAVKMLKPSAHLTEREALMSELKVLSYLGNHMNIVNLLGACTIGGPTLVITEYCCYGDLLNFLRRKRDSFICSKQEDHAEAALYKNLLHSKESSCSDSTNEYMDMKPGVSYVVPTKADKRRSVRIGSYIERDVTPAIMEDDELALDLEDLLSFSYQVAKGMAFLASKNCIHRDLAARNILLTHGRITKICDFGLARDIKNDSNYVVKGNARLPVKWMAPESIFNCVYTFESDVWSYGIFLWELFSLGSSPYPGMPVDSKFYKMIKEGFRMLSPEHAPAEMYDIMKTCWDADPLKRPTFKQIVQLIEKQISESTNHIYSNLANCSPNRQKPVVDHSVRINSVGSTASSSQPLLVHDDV

[7] = molecular target: T2, recombinant human FcγRIIIb (human, UniProt O75015 17-200); assay: bio-layer interferometry (Octet QKe); His-tagged receptor on anti-Penta-His biosensor, antibody in solution
T2 construct: Histidine-tagged recombinant receptor; not shown: histidine tag
T2 sequence (O75015 17-200 limits assumed): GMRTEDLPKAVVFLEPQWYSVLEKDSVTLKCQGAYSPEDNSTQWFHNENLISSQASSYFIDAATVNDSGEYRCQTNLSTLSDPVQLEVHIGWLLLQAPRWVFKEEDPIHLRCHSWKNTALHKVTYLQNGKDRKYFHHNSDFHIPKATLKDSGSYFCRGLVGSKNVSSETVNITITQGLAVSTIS

recombinant human FcγRI = molecular target: T3, recombinant human FcγRI (human, UniProt P12314 16-288, limits assumed); assay: as above
T3 construct: Histidine-tagged recombinant receptor captured on anti-Penta-His biosensors; also called Fc-gamma receptor I; not shown: histidine tag
T3 sequence (P12314 16-288 limits assumed): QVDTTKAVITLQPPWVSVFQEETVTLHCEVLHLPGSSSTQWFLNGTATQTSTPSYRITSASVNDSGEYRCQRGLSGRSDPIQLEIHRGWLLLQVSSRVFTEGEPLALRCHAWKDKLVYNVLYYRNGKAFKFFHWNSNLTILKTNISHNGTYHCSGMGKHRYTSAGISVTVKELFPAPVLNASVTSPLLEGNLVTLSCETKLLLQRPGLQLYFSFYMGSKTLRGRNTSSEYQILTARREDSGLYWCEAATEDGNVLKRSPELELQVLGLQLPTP

[8] = molecular target: T4, recombinant human FcγRIIa (human, UniProt P12318 36-218, limits assumed); assay: as above
T4 construct: Histidine-tagged recombinant receptor; not shown: histidine tag
T4 sequence (looked up): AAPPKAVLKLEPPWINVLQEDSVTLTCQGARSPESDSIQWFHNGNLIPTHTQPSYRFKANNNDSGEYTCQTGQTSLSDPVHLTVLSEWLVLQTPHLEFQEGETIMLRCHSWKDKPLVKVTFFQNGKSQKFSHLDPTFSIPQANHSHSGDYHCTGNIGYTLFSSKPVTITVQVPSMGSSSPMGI

[9] = molecular target: T5, recombinant human FcγRIIb (human, UniProt P31994 46-217, limits assumed); assay: as above
T5 construct: Histidine-tagged recombinant receptor; not shown: histidine tag
T5 sequence (looked up): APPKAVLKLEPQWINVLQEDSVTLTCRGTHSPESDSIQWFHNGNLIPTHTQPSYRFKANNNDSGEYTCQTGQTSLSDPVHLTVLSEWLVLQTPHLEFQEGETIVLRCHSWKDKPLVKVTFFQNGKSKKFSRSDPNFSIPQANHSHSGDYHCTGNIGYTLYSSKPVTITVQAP

[10] = molecular target: T6, recombinant human FcγRIIIa (human, UniProt P08637 17-208); assay: as above
T6 construct: Histidine-tagged recombinant receptor; not shown: histidine tag
T6 sequence (P08637 17-208 limits assumed): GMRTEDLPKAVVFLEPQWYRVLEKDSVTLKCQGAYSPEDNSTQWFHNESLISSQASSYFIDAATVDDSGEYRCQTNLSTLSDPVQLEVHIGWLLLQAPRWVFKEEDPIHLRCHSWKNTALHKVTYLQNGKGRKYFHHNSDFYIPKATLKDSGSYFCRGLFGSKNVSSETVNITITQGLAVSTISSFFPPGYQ

[11] = molecular target: T1, human neonatal Fc Receptor (FcRn); assay: bio-layer interferometry (Octet QKe), His-tagged FcRn captured on anti-Penta-His biosensors, pH 7.2, antibody range 500-15.6 nM, R2 0.9876; row head Kdis(1/s)
Method: as §1

Kd [1]: 0.383 nM
kon [1]: 2e+06 M⁻¹ s⁻¹
kon [2]: 1.05e+06 M⁻¹ s⁻¹
Kd [3]: 0.38 nM
koff [4]: 0.000765 s⁻¹
Kd [5]: 77.1 nM
mean IC50, inhibition of SCF-dependent M-07e cell proliferation [6]: 1.11 nM
binding result [7]: no binding (tested: 500 nM)
binding result (recombinant human FcγRI): no binding (tested: 500 nM)
binding result [8]: no binding (tested: 500 nM)
binding result [9]: no binding (tested: 500 nM)
binding result [10]: no binding (tested: 500 nM)
koff [11]: 0.0807 s⁻¹
B1: mAb1 (antibody)
heavy: QVQLVQSGAEVKKPGASVKLSCKASGYTFTDYYINWVRQAPGKGLEWIARIYPGSGNTYYNEKFKGRATLTADKSTSTAYMQLSSLRSEDTAVYFCARGVYYFDYWGQGTTVTVSSASTKGPSVFPLAPSSKSTSGGTAALGCLVKDYFPEPVTVSWNSGALTSGVHTFPAVLQSSGLYSLSSVVTVPSSSLGTQTYICNVNHKPSNTKVDKKVEPKSCDKTHTCPPCPAPEAQGGPSVFLFPPKPKDTLYITREPEVTCVVVDVSHEDPEVKFNWYVDGVEVHNAKTKPREEQYNSTYRVVSVLTVLHQDWLNGKEYKCQVSNKALPAPIEKTISKAKGQPREPQVYTLPPSRDELTKNQVSLTCLVKGFYPSDIAVEWESNGQPENNYKTTPPVLDSDGSFFLYSKLTVDKSRWQQGNVFSCSVMHEALHNHYTQKSLSLSPG
light: DIVMTQSPSSLSASVGDRVTITCKASQNVRTNVAWYQQKPGKAPKALIYSASYRYSGVPDRFTGSGSGTDFTLTISSLQPEDFADYFCQQYNSYPRTFGGGTKVEIKRTVAAPSVFIFPPSDEQLKSGTASVVCLLNNFYPREAKVQWKVDNALQSGNSQESVTEQDSKDSTYSLSSTLTLSKADYEKHKVYACEVTHQGLSSPVTKSFNRGEC
notes: Expressed in CHO cells; also called anti-KIT antibody mAb1; Fc mutated anti-KIT antibody
